Reference: US20050266562

What was measured:
[1] = molecular target: Sp1 (UniProt P08047); assay: cell_activity; settings: luciferase induction in Drosophila cells
[2] = molecular target: Sp3 (UniProt Q02447); assay: cell_activity; settings: luciferase induction in Drosophila cells
Sequence of Sp3 (Q02447 whole entry): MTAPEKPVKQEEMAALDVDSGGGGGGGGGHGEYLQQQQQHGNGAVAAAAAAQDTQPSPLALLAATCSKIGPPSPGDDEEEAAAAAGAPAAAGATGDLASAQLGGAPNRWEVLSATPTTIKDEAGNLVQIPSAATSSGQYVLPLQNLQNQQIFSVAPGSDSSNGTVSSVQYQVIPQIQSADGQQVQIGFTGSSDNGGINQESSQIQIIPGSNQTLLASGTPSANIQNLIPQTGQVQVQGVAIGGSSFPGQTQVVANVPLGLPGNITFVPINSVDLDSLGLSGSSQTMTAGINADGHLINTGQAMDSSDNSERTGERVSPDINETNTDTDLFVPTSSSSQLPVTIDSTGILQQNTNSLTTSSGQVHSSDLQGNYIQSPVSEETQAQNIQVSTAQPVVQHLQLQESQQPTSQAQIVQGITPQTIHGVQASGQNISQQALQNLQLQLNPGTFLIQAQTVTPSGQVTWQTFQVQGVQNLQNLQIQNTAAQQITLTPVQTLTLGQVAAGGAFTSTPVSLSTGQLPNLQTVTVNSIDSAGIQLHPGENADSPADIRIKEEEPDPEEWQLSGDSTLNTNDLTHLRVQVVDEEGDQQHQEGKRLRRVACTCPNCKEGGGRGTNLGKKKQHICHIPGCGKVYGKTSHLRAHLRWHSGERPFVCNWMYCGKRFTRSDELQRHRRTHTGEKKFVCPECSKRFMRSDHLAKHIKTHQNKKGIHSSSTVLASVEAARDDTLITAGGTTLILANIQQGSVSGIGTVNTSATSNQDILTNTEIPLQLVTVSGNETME

Sequence of Sp1 (P08047 2-785): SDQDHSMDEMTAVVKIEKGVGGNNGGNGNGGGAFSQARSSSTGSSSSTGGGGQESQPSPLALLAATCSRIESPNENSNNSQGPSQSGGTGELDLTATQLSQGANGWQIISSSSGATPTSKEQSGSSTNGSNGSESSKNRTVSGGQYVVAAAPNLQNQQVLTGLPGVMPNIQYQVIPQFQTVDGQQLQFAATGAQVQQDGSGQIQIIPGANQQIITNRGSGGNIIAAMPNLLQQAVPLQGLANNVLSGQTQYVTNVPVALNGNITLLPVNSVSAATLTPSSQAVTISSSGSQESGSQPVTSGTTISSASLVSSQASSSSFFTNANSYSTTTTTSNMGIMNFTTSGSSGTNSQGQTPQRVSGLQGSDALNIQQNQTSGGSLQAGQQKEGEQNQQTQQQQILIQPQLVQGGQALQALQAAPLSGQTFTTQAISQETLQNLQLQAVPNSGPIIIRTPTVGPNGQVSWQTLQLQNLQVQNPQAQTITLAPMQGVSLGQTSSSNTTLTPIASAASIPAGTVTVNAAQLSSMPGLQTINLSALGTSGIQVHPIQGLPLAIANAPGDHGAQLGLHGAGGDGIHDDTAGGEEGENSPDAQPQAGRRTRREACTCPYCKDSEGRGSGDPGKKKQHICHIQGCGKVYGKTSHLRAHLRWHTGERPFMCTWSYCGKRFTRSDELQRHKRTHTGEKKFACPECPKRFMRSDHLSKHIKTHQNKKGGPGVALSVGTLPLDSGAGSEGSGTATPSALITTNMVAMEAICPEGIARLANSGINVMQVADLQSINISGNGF

“CTGTATTGTTGTACAGAACTGCAGTTTGTTCTTTGTTATTTATTGTAAAGACAGGGTCTGGCTATGTTGCCTAGGCTGGTCTCGAACTGTTGGCCTCAAGCAATCCACCTGCCAAGCTCTGGGACCACAGGCATGAGCCATGGCATCTGATCKGTAGTTTGATCTTATTTCTTGCTGAGTAGTAGCCCATGGCATGACTTTATTATTTTGGGTGTCCATTCTCCTCTGGAGGGGCTCTGCTTTTTGAAACCACACCCTGGCCTAGCTCCCCTTCTCCCTGCCTCTCTGCAGGCTCACATCCACATGCCAAGACCTCTGCAGCCATTCTGCTTCCTGTCCTTCCACTCCTGTGGGACCTCAGAGAGCTACGGGGCTCCCTGGGTACCAACTGGCTCCTGAGGCCTGGGGGAGGGTGGTCTTCTGGGAGAAGGAAGCCAGGTCCCTGCAGGTTGTGGAGGGGGACAGAATGAGGGTTTTTCCCCAGGATGTTGTTGGCCCCTGCCCCCACTTCTGTTCCATAATTAACCACGCCCCTCCTACCCACTGTGCCCCTCTTCCTGCTGTGTGGAGGCCCTGAATCATTATTTTAACTACCCCCTGGGAGGGTGAGCACCTTCTGTGCTCTGTCCCCAACCTTCCACTTCCCCTCAACGCGCTGCTCAGGG (double strand) [CD11d promoter -591/+74 (luc reporter)]” was tested, and the activity [1] was 4.1 fold.

CD11c promoter -196/+30 (luc reporter) was tested, and the activity [1] was 19.5 fold and the activity [2] was 18.9 fold.
